Molecular target: microtubule (in vitro reconstituted, taxol-stabilised)

B1: HA-tagged wild-type p68 (HA-p68), immunopurified from SW480 cell lysates (protein)
chain: MSGYSSDRDRGRDRGFGAPRFGGSRAGPLSGKKFGNPGEKLVKKKWNLDELPKFEKNFYQEHPDLARRTAQEVETYRRSKEITVRGHNCPKPVLNFYEANFPANVMDVIARQNFTEPTAIQAQGWPVALSGLDMVGVAQTGSGKTLSYLLPAIVHINHQPFLERGDGPICLVLAPTRELAQQVQQVAAEYCRACRLKSTCIYGGAPKGPQIRDLERGVEICIATPGRLIDFLECGKTNLRRTTYLVLDEADRMLDMGFEPQIRKIVDQIRPDRQTLMWSATWPKEVRQLAEDFLKDYIHINIGALELSANHNILQIVDVCHDVEKDEKLIRLMEEIMSEKENKTIVFVETKRRCDELTRKMRRDGWPAMGIHGDKSQQERDWVLNEFKHGKAPILIATDVASRGLDVEDVKFVINYDYPNSSEDYIHRIGRTARSTKTGTAYTFFTPNNIKQVSDLISVLREANQAINPKLLQLVEDRGSGRSRGRGGMKDDRRDRYSAGKRGGFNTFRDRENYDRGYSSLLKRDFGAKTQNGVYSAANYTNGSFGSNFVSAGIQTSFRTGNPTGTYQNGYDSTQQYGSNVPNMHNGMNQQAYAYPATAAAPMIGYPMPTGYSQ
- % of gliding microtubules (n = 50), p68/Ca^2+-CaM, ATP: 74.2%
- % of gliding microtubules (n = 50), p68/Ca^2+-CaM, no ATP: 5.79%
- ATPase activity (inorganic phosphate hydrolyzed from ATP): the protein demonstrated an even stronger microtubule stimulated ATPase activity
- Maximum gliding speed, p68/Ca^2+-CaM, ATP: 0.52 µm/min
- Maximum gliding speed, p68/Ca^2+-CaM, no ATP: 0.01 µm/min
- Mean gliding speed, p68/Ca^2+-CaM, ATP: 0.16 µm/min
- Mean gliding speed, p68/Ca^2+-CaM, no ATP: 0 µm/min
